Target: T1, human 5T4 (oncofetal glycoprotein 5T4, trophoblast cell surface antigen) (human, UniProt Q13641 32-420)
T1 construct: whole, on cells; also called h5T4; 5T4 antigen
T1 sequence (looked up): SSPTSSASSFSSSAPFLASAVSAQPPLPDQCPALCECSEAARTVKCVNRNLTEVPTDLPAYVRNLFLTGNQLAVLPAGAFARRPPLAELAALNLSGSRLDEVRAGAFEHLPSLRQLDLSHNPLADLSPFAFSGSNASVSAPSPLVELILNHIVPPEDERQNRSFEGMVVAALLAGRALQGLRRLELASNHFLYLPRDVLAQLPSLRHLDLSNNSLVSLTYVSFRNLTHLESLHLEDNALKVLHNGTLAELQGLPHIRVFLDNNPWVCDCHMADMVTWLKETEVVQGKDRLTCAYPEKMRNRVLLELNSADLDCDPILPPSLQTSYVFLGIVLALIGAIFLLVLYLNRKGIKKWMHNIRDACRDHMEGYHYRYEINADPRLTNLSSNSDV
Assay: FACS: A9-h5T4 cells with B7.1/ScFv supernatant, then CTLA4-Ig, detected with FITC anti-mouse Ig
Protocol: After washing cells were incubated with CTLA4-Ig (Ancell) for 1 hour. After washing, bound CTLA4-Ig was detected using an FITC conjugated anti-mouse Ig (Dako).

B1: B7-1/ScFv fusion protein (leader sequence and extracellular domain of murine B7.1 fused via a flexible linker to the VH and VL of the murine Mab 5T4 specific … (other)
chain: VDEQLSKSVKDKVLLPCRYNSPHEDESEDRIYWQKHDKVVLSVIAGKLKVWPEYKNRTLYDNTTYSLIILGLVLSDRGTYSCVVQKKERGTYEVKHLALVKLSIKADFSTPNITESGNPSADTKRITCFASGGFPKPRFSWLENGRELPGINTTISQDPESELYTISSQLDFNTTRNHTIKCLIKYGDAHVSEDFTWEKPPEDPPDSKPGGGGSGGGGSGGGGTSEVQLQQSGPDLVKPGASVKISCKASGYSFTGYYMHWVKQSHGKSLEWIGRINPNNGVTLYNQKFKDKAILTVDKSSTTAYMELRSLTSEDSAVYYCARSTMITNYVMDYWGQVTSVTVSSGGGGSGGGGTGGGGSSIVMTQTPTFLLVSAGDRVTITCKASQSVSNDVAWYQQKPGQSPTLLISYTSSRYAGVPDRFIGSGYGTDFTFTISTLQAEDLAVYFCQQDYNSPPTFGGGTKLEIKR
notes: Tested as about 30-fold concentrated supernatant of transiently transfected 293T cells; also called B7/ScFv; OBM 233
  binding result: binds

Source: patent publication US20040131591A1 (OXFORD BIOMEDICA UK, published 2004)
